Measurements published in the supplement of paper PMC10126150.
± gives the standard deviation of the averaged measurements.

Test system: ATP
Assay: switch fluorescence ratio, 500 uM ATP over buffer (Cy3 cluster intensity, sum of 5 cycles each) (fold (ratio)); higher = stronger signal-on switching upon ATP binding; sequences stand for … in TCGTCGGCAGCGTCAGATGTGTATAAGAGACAGTTTTTTTTTTTTTTTTTTTTTTTTT…TC
Settings: aptamer strand: ATP DNA aptamer (quencher-CACCTGGGGGAGTATTGCGGAGGAAGG + anchor), 100 nM annealed; ATP concentration: 500 uM
In short: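 Five buffer/ATP imaging cycles were run on Cy3-labelled switching-strand clusters on a modified Illumina MiSeq flow-cell, with NaOH stripping and re-annealing between cycles. In each cycle, clusters annealed to 100 nM quencher-labelled ATP aptamer were imaged in selection buffer, then after 15 min with 500 uM ATP at 22 °C. Per cluster, the fluorescence ratio is summed target-cycle over summed buffer-cycle Cy3 intensity, averaged per switch-domain sequence. Only clusters within 100-1000 RFU were kept.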
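Note: ATP exposure 15 min at 22 °C before imaging.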

Sequence TGTGTGGGGG has a switch fluorescence ratio of 1.01 ± 0.031.

For TGTGTGTGGT, the switch fluorescence ratio was 1.006 ± 0.0062.

In the case of TGTGTTAAGA, the switch fluorescence ratio is reported as 0.9898 ± 0.0095.

TGTGTTAGAA was tested, and the switch fluorescence ratio was 1.01 ± 0.015.

Work on TGTGTTATGG yielded a switch fluorescence ratio of 0.968 ± 0.049.

Sequence TGTGTTCTGG has a switch fluorescence ratio of 0.986 ± 0.011.

TGTGTTTAAA gave a switch fluorescence ratio of 0.967 ± 0.021.

TGTGTTTTGT gave a switch fluorescence ratio of 0.979 ± 0.02.

Sequence TGTTAAAAAG has a switch fluorescence ratio of 0.991 ± 0.013.

Sequence TGTTAAGGGC has a switch fluorescence ratio of 1 ± 0.039.

With TGTTACATGT the switch fluorescence ratio was 1.04 ± 0.041.

Sequence TGTTAGAGGG has a switch fluorescence ratio of 1.01 ± 0.063.

Sequence TGTTAGATAG has a switch fluorescence ratio of 1 ± 0.025.

For TGTTAGGC, the switch fluorescence ratio was 1.01 ± 0.05.

With TGTTAGGGCT the switch fluorescence ratio was 0.918 ± 0.021.

TGTTAGGGGA was tested, and the switch fluorescence ratio was 1.01 ± 0.02.

Work on TGTTAGTCCC yielded a switch fluorescence ratio of 0.9897 ± 0.0022.

Work on TGTTAGTCGT yielded a switch fluorescence ratio of 1.013 ± 0.0091.

In the case of TGTTAGTGGG, the switch fluorescence ratio is reported as 1.02 ± 0.032.

Sequence TGTTATCAGG has a switch fluorescence ratio of 1.01 ± 0.038.

For TGTTATTACC, the switch fluorescence ratio was 1 ± 0.013.

For TGTTCCGTCT, the switch fluorescence ratio was 0.9732 ± 0.0095.

TGTTCGAGGC gave a switch fluorescence ratio of 1.03 ± 0.013.

With TGTTCGGAAA the switch fluorescence ratio was 1.01 ± 0.014.

TGTTCTAGTA was tested, and the switch fluorescence ratio was 1.27 ± 0.45.

Sequence TGTTCTTCCG has a switch fluorescence ratio of 1.23 ± 0.1.

With TGTTCTTGGG the switch fluorescence ratio was 0.985 ± 0.026.

TGTTGAGCAA was tested, and the switch fluorescence ratio was 1.6 ± 0.013.

For TGTTGATAGC, the switch fluorescence ratio was 0.992 ± 0.037.

With TGTTGATAGT the switch fluorescence ratio was 1 ± 0.023.

Work on TGTTGATGGT yielded a switch fluorescence ratio of 0.976 ± 0.031.

With TGTTGATTTT the switch fluorescence ratio was 1.03 ± 0.043.

Sequence TGTTGCCCCT has a switch fluorescence ratio of 1.02 ± 0.051.

Work on TGTTGCCGAT yielded a switch fluorescence ratio of 0.986 ± 0.019.

With TGTTGCTAGG the switch fluorescence ratio was 0.992 ± 0.031.

For TGTTGGGGGA, the switch fluorescence ratio was 0.979 ± 0.03.

For TGTTGGTCTG, the switch fluorescence ratio was 0.978 ± 0.031.

TGTTGGTCTT showed a switch fluorescence ratio of 0.952 ± 0.032.

TGTTGGTGGC was tested, and the switch fluorescence ratio was 1.02 ± 0.071.

For TGTTGGTTGT, the switch fluorescence ratio was 0.9935 ± 0.0067.

In the case of TGTTGTAGGG, the switch fluorescence ratio is reported as 1.02 ± 0.02.

Work on TGTTGTAGTG yielded a switch fluorescence ratio of 0.973 ± 0.017.

TGTTGTGTTA was tested, and the switch fluorescence ratio was 0.9965 ± 5.6e-06.

TGTTGTTTAC showed a switch fluorescence ratio of 1.0216 ± 0.00012.

TGTTTAAGAC gave a switch fluorescence ratio of 1.05 ± 0.092.

TGTTTACACT gave a switch fluorescence ratio of 1.01 ± 0.051.

TGTTTACGGT gave a switch fluorescence ratio of 0.983 ± 0.032.

TGTTTAGAAA was tested, and the switch fluorescence ratio was 1.01 ± 0.014.

With TGTTTAGGGT the switch fluorescence ratio was 0.997 ± 0.029.

In the case of TGTTTATGGG, the switch fluorescence ratio is reported as 1.01 ± 0.033.

TGTTTATTCG showed a switch fluorescence ratio of 0.97 ± 0.034.

In the case of TGTTTCATGC, the switch fluorescence ratio is reported as 1.07 ± 0.16.

Work on TGTTTCATTG yielded a switch fluorescence ratio of 0.976 ± 0.018.

With TGTTTCCTTT the switch fluorescence ratio was 1 ± 0.019.

Work on TGTTTCGTGT yielded a switch fluorescence ratio of 0.982 ± 0.032.

For TGTTTCTAAT, the switch fluorescence ratio was 0.999 ± 0.02.

TGTTTCTGGG showed a switch fluorescence ratio of 0.999 ± 0.05.

TGTTTGAAGC gave a switch fluorescence ratio of 0.9679 ± 0.0096.

TGTTTGACGT showed a switch fluorescence ratio of 1.03 ± 0.014.

Sequence TGTTTGAGGG has a switch fluorescence ratio of 1.02 ± 0.024.

TGTTTGAGTT showed a switch fluorescence ratio of 0.987 ± 0.039.

Sequence TGTTTGCTGT has a switch fluorescence ratio of 1.03 ± 0.074.

With TGTTTGCTTG the switch fluorescence ratio was 0.993 ± 0.021.

TGTTTGGAAG was tested, and the switch fluorescence ratio was 1.05 ± 0.056.

For TGTTTGGGCT, the switch fluorescence ratio was 1.02 ± 0.041.

TGTTTGGGTT was tested, and the switch fluorescence ratio was 0.978 ± 0.012.

For TGTTTTAAAG, the switch fluorescence ratio was 1.01 ± 0.061.

TGTTTTACTA was tested, and the switch fluorescence ratio was 0.986 ± 0.031.

In the case of TGTTTTATAT, the switch fluorescence ratio is reported as 1.01 ± 0.021.

Work on TGTTTTATTG yielded a switch fluorescence ratio of 1.01 ± 0.016.

TGTTTTATTT was tested, and the switch fluorescence ratio was 0.984 ± 0.018.

With TGTTTTCGGA the switch fluorescence ratio was 1.01 ± 0.012.

For TGTTTTCTGT, the switch fluorescence ratio was 0.976 ± 0.04.

In the case of TGTTTTGTAT, the switch fluorescence ratio is reported as 1.07 ± 0.052.

Work on TGTTTTTAGG yielded a switch fluorescence ratio of 0.989 ± 0.023.

Sequence TGTTTTTATT has a switch fluorescence ratio of 1.015 ± 0.0047.

TGTTTTTGT gave a switch fluorescence ratio of 1.18 ± 0.29.

In the case of TGTTTTTTCG, the switch fluorescence ratio is reported as 0.992 ± 0.024.

With TGTTTTTTTG the switch fluorescence ratio was 0.983 ± 0.041.

With TTAAAAAAGT the switch fluorescence ratio was 1.01 ± 0.02.

Work on TTAAAAACAT yielded a switch fluorescence ratio of 1.024 ± 0.0014.

In the case of TTAAAAATAA, the switch fluorescence ratio is reported as 1.04 ± 0.073.

With TTAAAACCCC the switch fluorescence ratio was 1.04 ± 0.054.

TTAAAACGGA showed a switch fluorescence ratio of 1.02 ± 0.036.

With TTAAAACTTT the switch fluorescence ratio was 1.02 ± 0.025.

For TTAAAAGATT, the switch fluorescence ratio was 0.99 ± 0.075.

In the case of TTAAAAGGGG, the switch fluorescence ratio is reported as 1.01 ± 0.044.

Work on TTAAAAGGT yielded a switch fluorescence ratio of 1.04 ± 0.056.

TTAAAAGTGG gave a switch fluorescence ratio of 1.01 ± 0.022.

In the case of TTAAAATACA, the switch fluorescence ratio is reported as 1.1 ± 0.14.

TTAAACCTAA was tested, and the switch fluorescence ratio was 1.02 ± 0.052.

TTAAACCTCT was tested, and the switch fluorescence ratio was 1 ± 0.019.

TTAAACCTTG was tested, and the switch fluorescence ratio was 1.15 ± 0.042.

In the case of TTAAACGGGG, the switch fluorescence ratio is reported as 1.01 ± 0.035.

Sequence TTAAAGCGGA has a switch fluorescence ratio of 1.01 ± 0.021.

TTAAAGGCAG gave a switch fluorescence ratio of 0.989 ± 0.025.

TTAAAGGGTT was tested, and the switch fluorescence ratio was 1.04 ± 0.12.

Work on TTAAAGTAGG yielded a switch fluorescence ratio of 0.992 ± 0.015.

TTAAAGTGAG was tested, and the switch fluorescence ratio was 0.99 ± 0.037.

Work on TTAAAGTGAT yielded a switch fluorescence ratio of 0.995 ± 0.036.

TTAAAGTGCT gave a switch fluorescence ratio of 0.984 ± 0.021.

TTAAAGTGGT gave a switch fluorescence ratio of 0.9789 ± 0.00047.

With TTAAAGTTAT the switch fluorescence ratio was 0.986 ± 0.061.

TTAAAGTTTG showed a switch fluorescence ratio of 1.06 ± 0.063.

With TTAAATAACT the switch fluorescence ratio was 1.12 ± 0.16.

Sequence TTAAATAATC has a switch fluorescence ratio of 1 ± 0.035.

For TTAAATAGAT, the switch fluorescence ratio was 1.01 ± 0.02.

TTAAATAGGG was tested, and the switch fluorescence ratio was 1 ± 0.057.

Sequence TTAAATCCGT has a switch fluorescence ratio of 0.989 ± 0.021.

Sequence TTAAATGGG has a switch fluorescence ratio of 0.9799 ± 0.0063.

TTAAATGGTG was tested, and the switch fluorescence ratio was 1.05 ± 0.072.

TTAAATTATC gave a switch fluorescence ratio of 1.041 ± 0.0058.

TTAAATTGCT showed a switch fluorescence ratio of 0.991 ± 0.025.

In the case of TTAACACGTA, the switch fluorescence ratio is reported as 1.2 ± 0.024.

Sequence TTAACCAAGA has a switch fluorescence ratio of 0.9755 ± 0.0022.

TTAACGGGAA showed a switch fluorescence ratio of 1 ± 0.024.

Sequence TTAACGGGGA has a switch fluorescence ratio of 1.02 ± 0.017.

TTAACGGGGG showed a switch fluorescence ratio of 0.984 ± 0.043.

TTAACGGTTC was tested, and the switch fluorescence ratio was 0.983 ± 0.017.

With TTAACGTAAG the switch fluorescence ratio was 1 ± 0.037.

In the case of TTAACTATGG, the switch fluorescence ratio is reported as 1.016 ± 0.0066.

TTAACTGGGA gave a switch fluorescence ratio of 0.998 ± 0.026.

TTAACTTTTT showed a switch fluorescence ratio of 1.07 ± 0.053.

TTAAGAACAA showed a switch fluorescence ratio of 1.02 ± 0.03.

Sequence TTAAGAACG has a switch fluorescence ratio of 1.002 ± 0.0087.

Sequence TTAAGAATTG has a switch fluorescence ratio of 1.04 ± 0.12.

Work on TTAAGAGGTG yielded a switch fluorescence ratio of 1.09 ± 0.034.

TTAAGATTGG was tested, and the switch fluorescence ratio was 0.959 ± 0.015.

In the case of TTAAGCAGTT, the switch fluorescence ratio is reported as 0.9853 ± 0.0056.

With TTAAGCCCGG the switch fluorescence ratio was 1.04 ± 0.066.

TTAAGCCTG showed a switch fluorescence ratio of 1.012 ± 0.0021.

TTAAGCGAAT gave a switch fluorescence ratio of 1.002 ± 0.0059.

In the case of TTAAGCGGGA, the switch fluorescence ratio is reported as 1.01 ± 0.015.

For TTAAGCTAGG, the switch fluorescence ratio was 1.004 ± 0.0054.

Sequence TTAAGGAGGT has a switch fluorescence ratio of 1.03 ± 0.099.

Sequence TTAAGGGAGC has a switch fluorescence ratio of 1.02 ± 0.052.

TTAAGGGCTT showed a switch fluorescence ratio of 1.01 ± 0.021.

For TTAAGGTAGC, the switch fluorescence ratio was 1.03 ± 0.013.

Sequence TTAAGGTATG has a switch fluorescence ratio of 0.997 ± 0.019.

With TTAAGGTTAA the switch fluorescence ratio was 1 ± 0.029.

For TTAAGGTTTT, the switch fluorescence ratio was 1 ± 0.03.

TTAAGTAATG showed a switch fluorescence ratio of 1.002 ± 0.0016.

TTAAGTAGGG was tested, and the switch fluorescence ratio was 1.01 ± 0.029.

TTAAGTAGTT gave a switch fluorescence ratio of 1.02 ± 0.0099.

Sequence TTAAGTGCGG has a switch fluorescence ratio of 1 ± 0.02.

Sequence TTAAGTGCTG has a switch fluorescence ratio of 1.02 ± 0.036.

With TTAAGTTACA the switch fluorescence ratio was 1.05 ± 0.032.

For TTAAGTTCGG, the switch fluorescence ratio was 1.02 ± 0.013.

Sequence TTAAGTTTTC has a switch fluorescence ratio of 0.979 ± 0.015.

Sequence TTAAGTTTTT has a switch fluorescence ratio of 0.98835 ± 0.00077.

Sequence TTAATAAGGT has a switch fluorescence ratio of 1.01 ± 0.035.

For TTAATAATAT, the switch fluorescence ratio was 1 ± 0.021.

With TTAATAGCGG the switch fluorescence ratio was 0.997 ± 0.049.
